Results published in paper PMC9412290.
Where a chain is given by its changes, count along the chain named. Names and notes keep the numbering of the source.

B1: human adenovirus type 3 (Ad3) fiber, on particles of the Ad3 vector (natural protein)
chain: MAKRARLSTSFNPVYPYEDESSSQHPFINPGFISPDGFTQSPNGVLSLKCVNPLTTASGSLQLKVGSGLTVDTTDGSLEENIKVNTPLTKSNHSINLPIGNGLQIEQNKLCSKLGNGLTFDSSNSIALKNNTLWTGPKPEANCIIEYGKQNPDSKLTLILVKNGGIVNGYVTLMGASDYVNTLFKNKNVSINVELYFDATGHILPDSSSLKTDLELKYKQTADFSARGFMPSTTAYPFVLPNAGTHNENYIFGQCYYKASDGALFPLEVTVMLNKRLPDSRTSYVMTFLWSLNAGLAPETTQATLITSPFTFSYIREDD
B2: human adenovirus type 3 (Ad3) fiber with the JO4 mutation (V239D), on particles of the Ad3-JO4 vector (natural protein)
chain: B1 chain with V239D

Biological target: CD46, stably expressed on CHO cells (CHO-CD46) (human) (UniProt P15529)
Chain of UniProt P15529 (P15529 35-392): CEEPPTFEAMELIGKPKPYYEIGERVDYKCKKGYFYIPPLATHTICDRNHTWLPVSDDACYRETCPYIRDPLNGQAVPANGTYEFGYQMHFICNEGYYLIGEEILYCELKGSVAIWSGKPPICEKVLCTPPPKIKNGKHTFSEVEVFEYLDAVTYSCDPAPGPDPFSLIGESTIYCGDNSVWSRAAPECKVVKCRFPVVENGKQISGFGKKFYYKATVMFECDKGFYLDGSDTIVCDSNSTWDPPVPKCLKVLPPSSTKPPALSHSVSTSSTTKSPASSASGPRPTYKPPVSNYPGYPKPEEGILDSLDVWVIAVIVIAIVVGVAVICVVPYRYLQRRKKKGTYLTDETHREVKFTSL

| Binder | percent GFP-positive cells by flow cytometry after infection of CHO-CD46 cells with 2000 vp/c of the Ad3 vector (transduction; CHO-K1 without receptor is not transduced) [%] | percent GFP-positive cells by flow cytometry after infection of CHO-CD46 cells with 2000 vp/c of the Ad3-JO4 vector (transduction; CHO-K1 without receptor is not transduced) [%] |
| --- | --- | --- |
| B1 | 13 |  |
| B2 |  | < 5 |
